B1: TPR t1 (parent)
chain: GACCAAUCUGCCCUCAGAGCUCGAGAACAUCUUCGGAUGCAGAGGAGGCAGGCUUCGGUGGCGCGAUAGCGCCAACGUCCUCAACCUCCAAUGCAUCCCACCACAUGAUGAUGCCUGAAGAGCCUUGGUUUUUUG

Variants of: B1
Test: polymerase ribozyme fitness, log enrichment relative to wild type (log ratio); higher = more active; in vitro selection for triplet polymerase activity
How it was run: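 Fitness is a logarithmic measure of how a genotype enriched relative to the wild type, with replicate averages weighted by inverse variance. The logarithm uses base 2, and enrichment came from Illumina sequencing of input and output libraries. Those libraries were PCR-built, transcribed mutants of each subunit of a heterodimeric triplet polymerase ribozyme, passed through one triplicate in vitro selection round that included frozen incubation at −7 °C, gel excision of extended constructs and streptavidin-bead capture. Genotypes were kept only if they had ≥10 input reads and ≥1 read per output.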

Point of comparison: U7G A41U C62U U132C, “polymerase ribozyme fitness (log ratio)” value -0.941. Against it:
- C72U U78C C86G G127C — lower, -2.25
- G110U G127A — lower, -2.05
- G45C G69A — lower, -3.75
- C8G A74C G120C — higher, 1.98
- A27C C88G U129C — lower, -4.24
- A5U U92G C104U — lower, -2.44
- C13U G61U — higher, 0.429
- A2U A43U C53G C73U U106A — lower, -7.47
- C11G G69A — lower, -2.73
- G17U U81A — lower, -3.22
- G47U G71C U126G — lower, -3.65
- A18G G107A — lower, -3.37
- A50U C62G U112G — lower, -5.81
- U38A G52A U55G G128A — lower, -2.73
- A74C C82A — higher, -0.0256
- U116G C123U G128A — lower, -5.61
- C85U U116A G120C — within 0.2 log units, -1.14
- C34U A41U C72U A105C G113C — lower, -7.42
- G45C C79A — lower, -2.14
- C12U G35A — lower, -3.06
- C34G C123U — lower, -5.16
- C72U C102A G128A — lower, -4.14
- C72G C86A U129C — lower, -2.2
- G71A C72U — lower, -1.32
- A18U U78C C88U U112G — lower, -2.16
- G61C C62G G63C U112A — lower, -4.63
- U59G C72U C86A — lower, -2.04
- A46U C53U A91U G113U U130A — lower, -4.7
- C28G C40A G71A C94U G110C — within 0.2 log units, -1.03
- U7G C12A C101G U116C — lower, -2.39
- C40A G48A G117C — lower, -5.6
- A24G G48U G110A U132A — lower, -3.72
- C73G U109A C114U C123A U130G U132A — lower, -4.38
- C13G A27U G47U G63A U78A — lower, -6.63
- A37C G45U G51U C73U — lower, -4.53
- C72U C97A — lower, -5.06
- C12U C22U U33A C124G — lower, -5.71
- C56U C114A — lower, -1.27
- U38A G60U C62A C115G — lower, -6.12
- A6G G45U C73U C98U A111G U125A — lower, -5.29
- A43U G63U — lower, -3.68
- A6G C56G A103U — lower, -4.63
- A27U G57U C73G U78C U96A A111U — lower, -5.99
- C40G G48U A105U — lower, -3.14
- C15U C53U C97U — lower, -1.96
- C8A U78C U106C C114U — lower, -2.11
- C22G C72G U81A — lower, -4.32
- A6G C72G G117U A121U G127A — lower, -2.18
- U7G C40U G69C C99U — lower, -4.48
- A41G C101A C115G — lower, -2.97
- A27U A46U G61A C85U C94U — lower, -3.53
- G61C C101A — lower, -2.74
- G69A G122A — lower, -2.53
- A2G G93A G120U — higher, -0.278
- C13U C20U A74U U92A — lower, -3.91
- U7A G61A U112G — higher, 0.622
- C12G G52A G61C C88U G120U — lower, -3.61
- C4A A29G U30C A74C A121U — lower, -3.71
- U7G C11U C97U — higher, 0.101
- A66G G77A — within 0.2 log units, -1.13
- U78G C102U G110A — lower, -4.35
- C4U G17A — lower, -2.72
- G57U C72G C94U G122A — lower, -3
- A5G A43G G63A U112G — lower, -5.31
- A50C G63U U81G G128C — lower, -4.28
- G10U C13G — higher, 0.0488
- A26G G69A — lower, -4.23
- C34G C53G C104A — lower, -4.3
- C53U C115U G117C — lower, -3.76
- C53U G117C — lower, -3.1
- C62G C89A — lower, -4.23
- U9G G10C A29U G42U A43G A46C C94U — lower, -4.04
- C8U C86A G113C U130G — lower, -2.85
- G10U C62U A111C G117C — lower, -5.6
- C40U C53A C73A C104U — higher, 0.971
- G58C C72U — higher, -0.231
- C3G G63C — lower, -2.64
- G39U C49A A100U U106A — lower, -1.51
- U9A C114U G120A C123U — lower, -2.11
- A16U G63A — lower, -2.16
- C8A C12G C15U A18U C70U G110U U125G — lower, -5.75
- G51A U87C U131A — lower, -2.41
